The values below come from patent US20210395742.

Common to all, as to experiment: EMSA
Series [1] concerns Mouse IgG1 monoclonal antibody (including anti-streptavidin) (Mus musculus). The settings on record: T = 5-ethynyldeoxyuridine clicked with sulfo-HSAB (NHS ester); for EC50: half-maximal covalent binding (estimate), Kd not determinable; for binding signal (% bound fraction): maximum covalent binding fraction.
The test system of series [2] is Mouse IgG2b (Mus musculus). Conditions: T = 5-ethynyldeoxyuridine clicked with sulfo-HSAB (NHS ester), covalent binding fraction.
For series [3], the system named is Mouse IgG2a (Mus musculus). Conditions: T = 5-ethynyldeoxyuridine clicked with sulfo-HSAB (NHS ester), covalent binding fraction.
The mark [4] stands for this setting: core of consensus SEQ:23, flanks not given.
Where [5] appears, read: core of consensus SEQ:22, flanks not given.

Regarding TAACGCARTAAGCGAG [Fc clone 2], in series [1] (setting [4]), the 50% effective concentration (EC50) is < 10 nM. Moreover, the binding signal (% bound fraction) in series [1] (setting [4]) is 20; in series [2] (setting [4]) it was 2; in series [3] (setting [4]), 20.
Take AGCGCGGAACCGTGCCTGGC [Fc clone 1]: the EC50 in series [1] (core of consensus SEQ:22, flanks not given, Cu(II) dependent) is < 10 nM. In addition, the binding signal (% bound fraction) amounted to 40 in series [1] (setting [5]), 10 in series [2] (setting [5]) and 40 in series [3] (setting [5]).
